Results published in US20200024330A1.

Legend:
Experiment in all cases: cell-based or functional assay
[1] = biological target: HIV-1 Env of isolate 92UG114 (subtype D), on pseudovirus (HIV-1)
[2] = biological target: HIV-1 Env of isolate MGRM-D-003 (subtype D), on pseudovirus (HIV-1)
[3] = biological target: HIV-1 Env of isolate MG RM-A-007 (pseudovirus) (HIV-1)
[4] = biological target: HIV-1 Env of isolate MGRM-D-005 (subtype D), on pseudovirus (HIV-1)
[5] = biological target: HIV-1 Env of isolate MGRM-Chronic-B-001 (HIV-1)
[6] = biological target: HIV-1 Env of isolate 6535.3 (HIV-1)
[7] = biological target: HIV-1 Env of isolate MG RM-A-011 (pseudovirus) (HIV-1)
[8] = biological target: HIV-1 Env of isolate 93TH305 (HIV-1)
[9] = biological target: HIV-1 Env of isolate MGRM-Chronic-B-004 (HIV-1)
[10] = biological target: HIV-1 Env of isolate 94UG103 (pseudovirus) (HIV-1)
[11] = biological target: HIV-1 Env of isolate MG RM-A-012 (pseudovirus) (HIV-1)
[12] = biological target: HIV-1 Env of isolate MGRM-D-004 (subtype D), on pseudovirus (HIV-1)
[13] = biological target: HIV-1 Env of isolate MGRM-D-008 (subtype D), on pseudovirus (HIV-1)
[14] = biological target: HIV-1 Env of isolate MG RM-A-013 (pseudovirus) (HIV-1)
[15] = biological target: HIV-1 Env of isolate CMU02 (pseudovirus) (HIV-1)
[16] = biological target: HIV-1 Env of isolate MG RM-A-010 (pseudovirus) (HIV-1)
[17] = biological target: HIV-1 Env of isolate 92BR020 (HIV-1)
[18] = biological target: HIV-1 Env of isolate MGRM-AE-004 (pseudovirus) (HIV-1)
[19] = biological target: HIV-1 Env of isolate 94 KE 105 (pseudovirus) (HIV-1)
[20] = biological target: HIV-1 Env of isolate MG RM-A-006 (pseudovirus) (HIV-1)
[21] = biological target: HIV-1 Env of isolate 98CN006 (subtype CRF08 BC), on pseudovirus (HIV-1)
[22] = biological target: HIV-1 Env of isolate 92UG046 (subtype D), on pseudovirus (HIV-1)
[23] = biological target: HIV-1 Env of isolate APV_13 (HIV-1)
[24] = biological target: HIV-1 Env of isolate MG RM-A-014 (pseudovirus) (HIV-1)
[25] = biological target: HIV-1 Env of isolate 92RW008 (clade A), on pseudovirus (HIV-1)
[26] = biological target: HIV-1 92BR020 envelope glycoprotein (Env) on pseudovirus (HIV-1)
[27] = biological target: HIV-1 Env of isolate MGRM-AE-006 (pseudovirus) (HIV-1)
[28] = biological target: HIV-1 Env of isolate JRFL (HIV-1)
[29] = biological target: HIV-1 Env of isolate 98CN009 (subtype CRF07_BC), on pseudovirus (HIV-1)
[30] = biological target: HIV-1 Env of isolate MG RM-A-005 (pseudovirus) (HIV-1)
[31] = biological target: HIV-1 Env of isolate 92WR024 (pseudovirus) (HIV-1)
[32] = biological target: HIV-1 Env of isolate CAAN.A2 (HIV-1)
[33] = biological target: HIV-1 Env of isolate MG RM-A-008 (pseudovirus) (HIV-1)
[34] = biological target: HIV-1 Env of isolate 93WR029 (pseudovirus) (HIV-1)
[35] = biological target: HIV-1 Env of isolate VLGCA1 (pseudovirus) (HIV-1)
[36] = biological target: HIV-1 Env of isolate 92RW009 (clade A), on pseudovirus (HIV-1)
[37] = biological target: HIV-1 92RW020 envelope glycoprotein (Env) on pseudovirus (HIV-1)
[38] = biological target: HIV-1 Env of isolate MGRM-AE-005 (pseudovirus) (HIV-1)
[39] = biological target: HIV-1 Env of isolate MGRM-Chronic-B-008 (HIV-1)
[40] = biological target: HIV-1 Env of isolate MGRM-AE-001 (pseudovirus) (HIV-1)
[41] = biological target: HIV-1 Env of isolate MGRM-D-001 (subtype D), on pseudovirus (HIV-1)
[42] = biological target: HIV-1 Env of isolate MGRM-AE-002 (pseudovirus) (HIV-1)
[43] = biological target: HIV-1 Env of isolate 92WR021 (pseudovirus) (HIV-1)
[44] = biological target: HIV-1 Env of isolate 92UG001 (subtype D), on pseudovirus (HIV-1)
[45] = biological target: HIV-1 Env of isolate 92WR020 (pseudovirus) (HIV-1)
[46] = biological target: HIV-1 Env of isolate MGRM-AE-003 (pseudovirus) (HIV-1)
[47] = biological target: HIV-1 Env of isolate MGRM-Chronic-B-002 (HIV-1)
[48] = biological target: HIV-1 Env of isolate 92WR026 (pseudovirus) (HIV-1)
[49] = biological target: HIV-1 Env of isolate APV_6 (HIV-1)
[50] = biological target: HIV-1 Env of isolate 92UG037 (pseudovirus) (HIV-1)
[51] = biological target: HIV-1 Env of isolate 93UG077 (pseudovirus) (HIV-1)
[52] = biological target: HIV-1 Env of isolate MG RM-A-009 (pseudovirus) (HIV-1)
[53] = biological target: HIV-1 Env of isolate 92UG005 (subtype D), on pseudovirus (HIV-1)
[54] = biological target: HIV-1 Env of isolate MGRM-Chronic-B-003 (HIV-1)
[55] = biological target: HIV-1 Env of isolate MGRM-D-002 (subtype D), on pseudovirus (HIV-1)
[56] = biological target: HIV-1 Env of isolate 92UG024 (subtype D), on pseudovirus (HIV-1)
[57] = biological target: HIV-1 Env of isolate APV_17 (HIV-1)
[58] = biological target: HIV-1 Env of isolate 92UG031 (pseudovirus) (HIV-1)
[59] = biological target: HIV-1 Env of isolate 92TH021 (pseudovirus) (HIV-1)

Sequence of 4995_P16 (PGT-145) (antibody) (VH): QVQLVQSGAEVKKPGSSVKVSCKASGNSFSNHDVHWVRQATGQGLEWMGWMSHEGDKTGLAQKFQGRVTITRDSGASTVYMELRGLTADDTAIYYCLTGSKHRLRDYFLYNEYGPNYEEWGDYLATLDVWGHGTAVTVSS
Sequence of 4995_P16 (PGT-145) (antibody) (VL): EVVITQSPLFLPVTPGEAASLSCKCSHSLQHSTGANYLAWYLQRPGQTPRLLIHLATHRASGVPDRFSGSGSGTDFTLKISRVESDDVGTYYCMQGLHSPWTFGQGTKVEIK
Sequence of 4993_K13 (PGT-141) (antibody) (VH): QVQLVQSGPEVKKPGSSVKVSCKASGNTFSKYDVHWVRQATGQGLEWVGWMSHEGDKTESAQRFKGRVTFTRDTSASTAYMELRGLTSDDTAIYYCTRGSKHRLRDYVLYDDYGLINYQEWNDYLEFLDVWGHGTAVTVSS
Sequence of 4993_K13 (PGT-141) (antibody) (VL): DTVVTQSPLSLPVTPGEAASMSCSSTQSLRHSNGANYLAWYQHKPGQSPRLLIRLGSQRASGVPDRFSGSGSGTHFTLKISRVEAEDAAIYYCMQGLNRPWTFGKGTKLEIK

## 4993_K13 (PGT-141) (antibody)
[1]
  IC50, pseudovirus neutralization: > 50 µg/mL
[2]
  IC50, pseudovirus neutralization: > 50 µg/mL
[3]
  IC50 (µg/mL), pseudovirus neutralization: > 50 µg/mL
[4]
  IC50, pseudovirus neutralization: 5.15 µg/mL
[5]
  IC50: > 50 µg/mL
[6]
  IC50: > 50 µg/mL
[7]
  IC50 (µg/mL), pseudovirus neutralization: > 50 µg/mL
[8]
  IC50: > 50 µg/mL
[9]
  IC50: 0.586 µg/mL
[10]
  IC50 (µg/mL), pseudovirus neutralization: > 50 µg/mL
[11]
  IC50 (µg/mL), pseudovirus neutralization: > 50 µg/mL
[12]
  IC50, pseudovirus neutralization: > 50 µg/mL
[13]
  IC50, pseudovirus neutralization: 0.371 µg/mL
[14]
  IC50 (µg/mL), pseudovirus neutralization: 9.86 µg/mL
[15]
  IC50 (µg/mL), pseudovirus neutralization: > 50 µg/mL
[16]
  IC50 (µg/mL), pseudovirus neutralization: 0.022 µg/mL
[17]
  IC50: 20.3 µg/mL
[18]
  IC50 (µg/mL), pseudovirus neutralization: > 50 µg/mL
[19]
  IC50 (µg/mL), pseudovirus neutralization: 0.204 µg/mL
[20]
  IC50 (µg/mL), pseudovirus neutralization: > 50 µg/mL
[21]
  IC50, pseudovirus neutralization: > 50 µg/mL
[22]
  IC50, pseudovirus neutralization: > 50 µg/mL
[23]
  IC50: > 50 µg/mL
[24]
  IC50 (µg/mL), pseudovirus neutralization: 0.628 µg/mL
[25]
  IC50, single-round pseudovirus neutralization: 0.579 µg/mL
[26]
  IC50 (ug/ml), neutralizing activity: > 10 µg/mL
[27]
  IC50 (µg/mL), pseudovirus neutralization: > 50 µg/mL
[28]
  IC50: > 50 µg/mL
[29]
  IC50, pseudovirus neutralization: 1.28 µg/mL
[30]
  IC50 (µg/mL), pseudovirus neutralization: 11.1 µg/mL
[31]
  IC50 (µg/mL), pseudovirus neutralization: 0.175 µg/mL
[32]
  IC50: > 50 µg/mL
[33]
  IC50 (µg/mL), pseudovirus neutralization: > 50 µg/mL
[34]
  IC50 (µg/mL), pseudovirus neutralization: 0.019 µg/mL
[35]
  IC50 (µg/mL), pseudovirus neutralization: 2.07 µg/mL
[36]
  IC50, single-round pseudovirus neutralization: 0.022 µg/mL
[37]
  IC50 (ug/ml), neutralizing activity: > 10 µg/mL
[38]
  IC50 (µg/mL), pseudovirus neutralization: > 50 µg/mL
[39]
  IC50: > 50 µg/mL
[40]
  IC50 (µg/mL), pseudovirus neutralization: > 50 µg/mL
[41]
  IC50, pseudovirus neutralization: > 50 µg/mL
[42]
  IC50 (µg/mL), pseudovirus neutralization: > 50 µg/mL
[43]
  IC50 (µg/mL), pseudovirus neutralization: > 50 µg/mL
[44]
  IC50, pseudovirus neutralization: > 50 µg/mL
[45]
  IC50 (µg/mL), pseudovirus neutralization: > 50 µg/mL
[46]
  IC50 (µg/mL), pseudovirus neutralization: > 50 µg/mL
[47]
  IC50: > 50 µg/mL
[48]
  IC50 (µg/mL), pseudovirus neutralization: 1.78 µg/mL
[49]
  IC50: 14.2 µg/mL
[50]
  IC50 (µg/mL), pseudovirus neutralization: 1.28 µg/mL
[51]
  IC50 (µg/mL), pseudovirus neutralization: > 50 µg/mL
[52]
  IC50 (µg/mL), pseudovirus neutralization: 0.029 µg/mL
[53]
  IC50, pseudovirus neutralization: > 5 µg/mL
[54]
  IC50: 0.4 µg/mL
[55]
  IC50, pseudovirus neutralization: > 50 µg/mL
[56]
  IC50, pseudovirus neutralization: > 50 µg/mL
[57]
  IC50: 0.59 µg/mL
[58]
  IC50 (µg/mL), pseudovirus neutralization: 0.093 µg/mL
[59]
  IC50 (µg/mL), pseudovirus neutralization: 0.001 µg/mL

## 4995_P16 (PGT-145) (antibody)
[1]
  IC50, pseudovirus neutralization: 20.1 µg/mL
[2]
  IC50, pseudovirus neutralization: 0.006 µg/mL
[3]
  IC50 (µg/mL), pseudovirus neutralization: > 50 µg/mL
[4]
  IC50, pseudovirus neutralization: 10.4 µg/mL
[5]
  IC50: 3.22 µg/mL
[6]
  IC50: > 50 µg/mL
[7]
  IC50 (µg/mL), pseudovirus neutralization: 0.484 µg/mL
[8]
  IC50: 0.032 µg/mL
[9]
  IC50: 0.023 µg/mL
[10]
  IC50 (µg/mL), pseudovirus neutralization: 0.331 µg/mL
[11]
  IC50 (µg/mL), pseudovirus neutralization: 0.23 µg/mL
[12]
  IC50, pseudovirus neutralization: 10.9 µg/mL
[13]
  IC50, pseudovirus neutralization: 0.025 µg/mL
[14]
  IC50 (µg/mL), pseudovirus neutralization: 1.76 µg/mL
[15]
  IC50 (µg/mL), pseudovirus neutralization: 1.43 µg/mL
[16]
  IC50 (µg/mL), pseudovirus neutralization: 0.028 µg/mL
[17]
  IC50: 1.05 µg/mL
[18]
  IC50 (µg/mL), pseudovirus neutralization: 0.006 µg/mL
[19]
  IC50 (µg/mL), pseudovirus neutralization: 1.32 µg/mL
[20]
  IC50 (µg/mL), pseudovirus neutralization: > 50 µg/mL
[21]
  IC50, pseudovirus neutralization: > 50 µg/mL
[22]
  IC50, pseudovirus neutralization: > 50 µg/mL
[23]
  IC50: 0.337 µg/mL
[24]
  IC50 (µg/mL), pseudovirus neutralization: 1.36 µg/mL
[25]
  IC50, single-round pseudovirus neutralization: 0.4 µg/mL
[27]
  IC50 (µg/mL), pseudovirus neutralization: > 50 µg/mL
[28]
  IC50: 30.4 µg/mL
[29]
  IC50, pseudovirus neutralization: 0.136 µg/mL
[30]
  IC50 (µg/mL), pseudovirus neutralization: 0.128 µg/mL
[31]
  IC50 (µg/mL), pseudovirus neutralization: 0.069 µg/mL
[32]
  IC50: 7.08 µg/mL
[33]
  IC50 (µg/mL), pseudovirus neutralization: > 50 µg/mL
[34]
  IC50 (µg/mL), pseudovirus neutralization: > 50 µg/mL
[35]
  IC50 (µg/mL), pseudovirus neutralization: 8.01 µg/mL
[36]
  IC50, single-round pseudovirus neutralization: 0.026 µg/mL
[38]
  IC50 (µg/mL), pseudovirus neutralization: 0.967 µg/mL
[39]
  IC50: 1.9 µg/mL
[40]
  IC50 (µg/mL), pseudovirus neutralization: 20.9 µg/mL
[41]
  IC50, pseudovirus neutralization: 0.56 µg/mL
[42]
  IC50 (µg/mL), pseudovirus neutralization: 1.87 µg/mL
[43]
  IC50 (µg/mL), pseudovirus neutralization: 1.62 µg/mL
[44]
  IC50, pseudovirus neutralization: > 50 µg/mL
[45]
  IC50 (µg/mL), pseudovirus neutralization: 0.997 µg/mL
[46]
  IC50 (µg/mL), pseudovirus neutralization: 0.552 µg/mL
[47]
  IC50: 3.67 µg/mL
[48]
  IC50 (µg/mL), pseudovirus neutralization: 1.45 µg/mL
[49]
  IC50: 0.104 µg/mL
[50]
  IC50 (µg/mL), pseudovirus neutralization: 3.15 µg/mL
[51]
  IC50 (µg/mL), pseudovirus neutralization: > 50 µg/mL
[52]
  IC50 (µg/mL), pseudovirus neutralization: 0.235 µg/mL
[53]
  IC50, pseudovirus neutralization: > 50 µg/mL
[54]
  IC50: 0.045 µg/mL
[55]
  IC50, pseudovirus neutralization: > 50 µg/mL
[56]
  IC50, pseudovirus neutralization: 1.6 µg/mL
[57]
  IC50: 0.488 µg/mL
[58]
  IC50 (µg/mL), pseudovirus neutralization: 3.22 µg/mL
[59]
  IC50 (µg/mL), pseudovirus neutralization: 0.013 µg/mL
